PMC7616478 (Proteins, 2024)

Experiments:
[1] = target: C-Mad2* (closed conformation of full-length human R133A Mad2) (human) (UniProt Q13257); experiment: 15N-CEST + 15N-CPMG relaxation dispersion NMR
[2] = target: C-Mad2* (closed conformation of full-length human R133A Mad2) (human, UniProt Q13257 1-205, R133A); experiment: NMR titration
[3] = target: L5I Mad2* (L5I R133A Mad2) (human, UniProt Q13257 1-205, L5I | R133A); experiment: NMR titration
L5I Mad2* (L5I R133A Mad2), sequence (Q13257 whole entry L5I/R133A): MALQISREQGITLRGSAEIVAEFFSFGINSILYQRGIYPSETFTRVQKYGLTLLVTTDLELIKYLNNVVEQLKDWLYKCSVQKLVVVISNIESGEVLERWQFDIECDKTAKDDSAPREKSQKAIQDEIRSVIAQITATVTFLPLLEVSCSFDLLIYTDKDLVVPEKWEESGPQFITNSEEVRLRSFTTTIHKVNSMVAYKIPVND

C-Mad2* (closed conformation of full-length human R133A Mad2), sequence (Q13257 whole entry R133A): as the sequence (Q13257 whole entry L5I/R133A) above, with I5L counted along it

| Molecule | Kd [1] | koff [1] | kon [1] | population of the excited state E1 (pE1) at 133 μM [1] | binding result [2] | binding result [3] |
| --- | --- | --- | --- | --- | --- | --- |
| C-Mad2* (closed conformation of full-length human R133A Mad2) (from UniProt Q13257 1-205) (natural protein) | 3.4 mM | 152 s⁻¹ | 44000 M⁻¹ s⁻¹ | 3.5% | – | – |
| SWYSYPPPQRAV [Mad2-binding peptide 1 (MBP1)] | – | – | – | – | binds | binds |
